The target in series [1] is T1, GapRΔC17 (Caulobacter crescentus, UniProt B8H4R9 1-72).
T1 sequence: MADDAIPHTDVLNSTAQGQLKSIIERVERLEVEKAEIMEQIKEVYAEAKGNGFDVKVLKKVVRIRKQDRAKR
Briefly: MST; MST: 20 mM PBS, 150 mM NaCl, 0.02% n-dodecyl-β-D-maltoside, pH 7, 20 nM labeled dimer (labeling at room temperature); NMR netropsin competition: 50 mM sodium phosphate, 150 mM NaCl, pH 7.0, 90% H2O/5% D2O (so in the source). As to conditions: protein: recombinant, tags: C-terminal His6, chain copies: 2.

Series [2] concerns the molecule itself. Kind of series: crystal structure; hanging drop vapor diffusion at room temperature; protein 10 mg/mL in 50 mM HEPES pH 7.0, 300 mM NaCl; 0.1 M sodium cacodylate pH 6.0, 15% PEG4000; 2.08 angstrom.
Series [3] has as its target T1, GapRΔC17. Briefly: NMR titration (1H-15N HSQC); MST: 20 mM PBS, 150 mM NaCl, 0.02% n-dodecyl-β-D-maltoside, pH 7, 20 nM labeled dimer (labeling at room temperature); NMR netropsin competition: 50 mM sodium phosphate, 150 mM NaCl, pH 7.0, 90% H2O/5% D2O (so in the source). As to conditions: protein: recombinant; tags: C-terminal His6; chain copies: 2.

B1: 6A DNA (dsDNA)
DNA 1: CGCAAAAAAGCG
DNA 2: CGCTTTTTTGCG
For B1, the Kd – broadly, the constant that tells how readily two partners part at equilibrium – with GapRΔC17 [1] (blunt) was determined as 1.1 ± 0.1 µM.

B2: GapR^ΔC17 (DNA binding domain of GapR, residues 1–72) (domain or fragment, Caulobacter crescentus, UniProt B8H4R9 1-72, looked up)
chain: MADDAIPHTDVLNSTAQGQLKSIIERVERLEVEKAEIMEQIKEVYAEAKGNGFDVKVLKKVVRIRKQDRAKR
notes: GapR, nucleoid-associated protein of Caulobacter crescentus, gene gapr (CCNA_03428), residues 1-72 (the C-terminal 17 residues, most of helix α3, deleted); 8.2 kDa; Cloned into the NdeI and XhoI sites of pET-21a(+) and followed by a C-terminal His6-tag; A selenomethionyl derivative was used for phasing; also called DNA recognition motif of GapR; dimer unit of GapR; source: E. coli Rosetta (DE3), …
Consider B2, for which the binding result in series [2] is on record as “binds”.

B3: 3AT DNA (dsDNA)
DNA 1: CGCATATATGCG
DNA 2: CGCATATATGCG
Take B3: the binding result in the series with GapRΔC17 [3] is recorded as “binds”.

B4: 6CG DNA (dsDNA)
DNA 1: CGCGCGCGCGCG
DNA 2: CGCGCGCGCGCG
As to B4, in the series with GapRΔC17 [1], the dissociation constant (Kd) worked out at 18 ± 2 µM.

The values are drawn from paper PMC8510090, “The DNA Recognition Motif of GapR Has an Intrinsic DNA Binding Preference towards AT-rich DNA” (Molecules, 2021).
